Values quoted from earlier work in article PMC5801593.

Molecular target: IscS (Escherichia coli) (UniProt P0A6B7)
Test: fluorescence labeling and calorimetry

Sequence of IscS (Escherichia coli) (P0A6B7 whole entry): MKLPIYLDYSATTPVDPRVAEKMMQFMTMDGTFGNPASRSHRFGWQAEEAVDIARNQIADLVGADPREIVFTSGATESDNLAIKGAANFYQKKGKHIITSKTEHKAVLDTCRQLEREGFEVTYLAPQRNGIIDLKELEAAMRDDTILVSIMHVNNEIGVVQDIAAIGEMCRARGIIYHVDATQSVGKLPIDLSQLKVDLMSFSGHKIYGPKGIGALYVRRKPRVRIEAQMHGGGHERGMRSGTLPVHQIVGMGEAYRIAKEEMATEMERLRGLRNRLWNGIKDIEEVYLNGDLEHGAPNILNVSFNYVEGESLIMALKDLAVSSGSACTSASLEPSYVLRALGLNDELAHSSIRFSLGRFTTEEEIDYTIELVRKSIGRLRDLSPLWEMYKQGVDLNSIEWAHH
Sequence of CyaY (P27838 whole entry): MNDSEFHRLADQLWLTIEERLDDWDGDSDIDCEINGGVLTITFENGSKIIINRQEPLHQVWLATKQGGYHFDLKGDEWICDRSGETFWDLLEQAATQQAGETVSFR

| Substance | Kd |
| --- | --- |
| CyaY (from UniProt P27838) | 20 µM |
| IscX (from UniProt P0C0L9) | 12 µM |
